Measured values reported in US10729768B2, “Combination of anti-CD20 antibody and PI3 kinase selective inhibitor” (TG Therapeutics, Inc., priority 2012, dated 2020).

What was measured:
Experiment in all cases: cell cycle assay, flow cytometry
Type in all cases: cell-based
[1] = system: DB Cells; conditions: for G0/G1, percentage of the cell population / G2/M, percentage of the cell population / S, percentage of the cell population / Sub G0, percentage of the cell population: DB cells, 72 h
Experimental: (§1) A cell cycle assay reagent (Millipore) was used to determine the effect of S-isomer of a compound of formula A, UBX, and combinations thereof on the cell cycle in cancerous cells. […] The cells were transferred to microfuge tubes to receive 50 μl of cell cycle reagent and incubated for 30 minutes at RT away from light. Cells were then diluted with 300-400 μl PBS, and a minimum of 10,000 events were acquired on a Guava® easyCyte™ flow cytometer. The data was analyzed with Express Pro software and the percentage of the cell population in different cell cycle stages with respect to control was presented in histograms.

[2] = system: Daudi cells; conditions: for G0/G1, percentage of the cell population / G2/M, percentage of the cell population / S, percentage of the cell population / Sub G0, percentage of the cell population: 72 h
Experimental: as §1

[3] = system: Raji Cells; conditions: for G0/G1, percentage of the cell population / G2/M, percentage of the cell population / S, percentage of the cell population / Sub G0, percentage of the cell population: 72 h
Experimental: as §1

[4] = system: U266B1 cells; conditions: for G0/G1, percentage of the cell population / G2/M, percentage of the cell population / S, percentage of the cell population / Sub G0, percentage of the cell population: 72 h
Experimental: as §1

B1: UBX: monoclonal antibody that targets a specific and unique epitope on CD20, bioengineered for enhanced clinical activity and potency (antibody, V domains shown)
VH: QAYLQQSGAELVRPGASVKMSCKASGYTFTSYNMHWVKQTPRQGLEWIGGIYPGNGDTSYNQKFKGKATLTVGKSSSTAYMQLSSLTSEDSAVYFCARYDYNYAMDYWGQGTSVTVSS
VL: QIVLSQSPAILSASPGEKVTMTCRASSSVSYMHWYQQKPGSSPKPWIYATSNLASGVPARFSGSGSGTSYSFTISRVEAEDAATYYCQQWTFNPPTFGGGTRLEIK
modifications: antibody fragment
[1]; UBX 0.001 ng/ml
  G0/G1, percentage of the cell population: 54.38
  G2/M, percentage of the cell population: 34.02
  S, percentage of the cell population: 9.45
  Sub G0, percentage of the cell population: 0.59
[1]; UBX 0.01 ng/ml
  G0/G1, percentage of the cell population: 54.99
  G2/M, percentage of the cell population: 34.79
  S, percentage of the cell population: 7.73
  Sub G0, percentage of the cell population: 0.73
[1]; UBX 0.1 ng/ml
  G0/G1, percentage of the cell population: 56.34
  G2/M, percentage of the cell population: 38.40
  S, percentage of the cell population: 12.34
  Sub G0, percentage of the cell population: 1.10
[1]; UBX 1 ng/ml
  G0/G1, percentage of the cell population: 51.36
  G2/M, percentage of the cell population: 40.07
  S, percentage of the cell population: 6.46
  Sub G0, percentage of the cell population: 0.52
[1]; UBX 10 ng/ml
  G0/G1, percentage of the cell population: 49.52
  G2/M, percentage of the cell population: 40.56
  S, percentage of the cell population: 10.07
  Sub G0, percentage of the cell population: 0.56
[1]; UBX 100 ng/ml
  G0/G1, percentage of the cell population: 45.98
  G2/M, percentage of the cell population: 46.55
  S, percentage of the cell population: 7.66
  Sub G0, percentage of the cell population: 0.67
[1]; Diffuse Large B-cell Lymphoma (DB) cells, 72 hours
  cell cycle effect: modest G2/M arrest
[2]; UBX 0.001 ng/ml
  G0/G1, percentage of the cell population: 38.12
  G2/M, percentage of the cell population: 41.95
  S, percentage of the cell population: 17.90
  Sub G0, percentage of the cell population: 2.03
[2]; UBX 0.01 ng/ml
  G0/G1, percentage of the cell population: 36.24
  G2/M, percentage of the cell population: 37.83
  S, percentage of the cell population: 19.15
  Sub G0, percentage of the cell population: 6.77
[2]; UBX 0.1 ng/ml
  G0/G1, percentage of the cell population: 37.40
  G2/M, percentage of the cell population: 32.42
  S, percentage of the cell population: 17.06
  Sub G0, percentage of the cell population: 13.42
[2]; UBX 1 ng/ml
  G0/G1, percentage of the cell population: 40.52
  G2/M, percentage of the cell population: 26.99
  S, percentage of the cell population: 17.54
  Sub G0, percentage of the cell population: 14.95
[2]; UBX 10 ng/ml
  G0/G1, percentage of the cell population: 40.92
  G2/M, percentage of the cell population: 28.08
  S, percentage of the cell population: 13.23
  Sub G0, percentage of the cell population: 17.77
[2]; UBX 100 ng/ml
  G0/G1, percentage of the cell population: 43.66
  G2/M, percentage of the cell population: 28.55
  S, percentage of the cell population: 9.28
  Sub G0, percentage of the cell population: 19.55
[2]; 72 hours
  cell cycle effect: increased the number of Sub GO cells
[3]; UBX 0.001 ng/ml
  G0/G1, percentage of the cell population: 50.52
  G2/M, percentage of the cell population: 33.66
  S, percentage of the cell population: 10.61
  Sub G0, percentage of the cell population: 4.35
[3]; UBX 0.01 ng/ml
  G0/G1, percentage of the cell population: 54.54
  G2/M, percentage of the cell population: 25.08
  S, percentage of the cell population: 12.65
  Sub G0, percentage of the cell population: 5.51
[3]; UBX 0.1 ng/ml
  G0/G1, percentage of the cell population: 41.11
  G2/M, percentage of the cell population: 22.00
  S, percentage of the cell population: 8.93
  Sub G0, percentage of the cell population: 23.73
[3]; UBX 1 ng/ml
  G0/G1, percentage of the cell population: 39.72
  G2/M, percentage of the cell population: 15.35
  S, percentage of the cell population: 14.82
  Sub G0, percentage of the cell population: 27.32
[3]; UBX 10 ng/ml
  G0/G1, percentage of the cell population: 45.01
  G2/M, percentage of the cell population: 12.90
  S, percentage of the cell population: 8.15
  Sub G0, percentage of the cell population: 31.86
[3]; UBX 100 ng/ml
  G0/G1, percentage of the cell population: 22.19
  G2/M, percentage of the cell population: 33.74
  S, percentage of the cell population: 11.05
  Sub G0, percentage of the cell population: 34.78
[3]; 72 hours
  cell cycle effect: increased the number of Sub GO cells
[4]; UBX 0.001 ng/ml
  G0/G1, percentage of the cell population: 60.79
  G2/M, percentage of the cell population: 30.49
  S, percentage of the cell population: 6.00
  Sub G0, percentage of the cell population: 1.34
[4]; UBX 0.01 ng/ml
  G0/G1, percentage of the cell population: 59.32
  G2/M, percentage of the cell population: 35.48
  S, percentage of the cell population: 6.57
  Sub G0, percentage of the cell population: 0.74
[4]; UBX 0.1 ng/ml
  G0/G1, percentage of the cell population: 57.53
  G2/M, percentage of the cell population: 35.64
  S, percentage of the cell population: 7.63
  Sub G0, percentage of the cell population: 1.35
[4]; UBX 1 ng/ml
  G0/G1, percentage of the cell population: 58.81
  G2/M, percentage of the cell population: 36.07
  S, percentage of the cell population: 7.07
  Sub G0, percentage of the cell population: 0.51
[4]; UBX 10 ng/ml
  G0/G1, percentage of the cell population: 56.85
  G2/M, percentage of the cell population: 37.86
  S, percentage of the cell population: 6.34
  Sub G0, percentage of the cell population: 0.78
[4]; UBX 100 ng/ml
  G0/G1, percentage of the cell population: 52.95
  G2/M, percentage of the cell population: 39.65
  S, percentage of the cell population: 7.91
  Sub G0, percentage of the cell population: 1.95
[4]; 72 hours
  cell cycle effect: modest G2/M arrest
